Measurements reported in US20170306033A1 (Amgen, published 2017).
Changes are numbered by the printed parent chain.

B1: iPS:327714 (bispecific antibody, human IgG1, kappa, lambda, N297G)
light 1: EIVLTQSPATLSLSPGERATLSCRASQSVGRSLHWYQQKPGQAPRLLIKYASQSLSGIPARFSGSGSGTDFTLTISSLEPEDFAVYYCHQSSRLPFTFGPGTKVDIKRTVAAPSVFIFPPSDEQLKSGTASVVCLLNNFYPREAKVQWKVDNALQSGNSQESVTEQDSKDSTYSLESTLTLSKADYEKHKVYACEVTHQGLSSPVTKSFNRGEC
heavy 1: not shown
light 2: QSVLTQPPSVSAAPGQKVTISCSGSSSNIGNNYVSWYQQLPGTAPKLLIYDNNKRPSGIPDRFSGSKSGTSATLGITGLQTGDEADYYCGTWDSRLSAVVFGGGTKLTVLGQPKANPTVTLFPPSSEELQANKATLVCLISDFYPGAVTVAWKADGSPVKAGVETTKPSKQSNNKYAAKSYLSLTPEQWKSHRSYSCQVTHEGSTVEKTVAPTECS
heavy 2: QVQLVESGGGVVQPGRSLRLSCAASGFTFSSFGMHWVRQAPGKGLEWVAVISFDGSIKYSVDSVKGRFTISRDNSKNTLFLQMNSLRAEDTAVYYCARDRLNYYDSSGYYHYKYYGMAVWGQGTTVTVSSASTKGPSVFPLAPSSKSTSGGTAALGCLVKDYFPEPVTVSWNSGALTSGVHTFPAVLQSSGLYSLESVVTVPSSSLGTQTYICNVNHKPSNTKVDKKVEPKSCDKTHTCPPCPAPELLGGPSVFLFPPKPKDTLMISRTPEVTCVVVDVSHEDPEVKFNWYVDGVEVHNAKTKPCEEQYGSTYRCVSVLTVLHQDWLNGKEYKCKVSNKALPAPIEKTISKAKGQPREPQVYTLPPSRKKMTKNQVSLTCLVKGFYPSDIAVEWESNGQPENNYKTTPPVLKSDGSFFLYSKLTVDKSRWQQGNVFSCSVMHEALHNHYTQKSLSLSPGK
B2: iPS:327717 (bispecific antibody, human IgG1, kappa, lambda, N297G)
light 1: not shown
heavy 1: not shown
light 2: B1 light 2 with G75A
heavy 2: B1 heavy 2 with K370E
B3: iPS:327729 (bispecific antibody, human IgG1, kappa, lambda, N297G)
light 1: DIQLTQSPSFLSASVGDRVTITCRASQSIGRSLHWYQQKPGKAPKLLIKYASQSLSGVPSRFSGSGSGTEFTLTISSLQPEDFATYYCHQSSRLPFTFGPGTKVDIKRTVAAPSVFIFPPSDEQLKSGTASVVCLLNNFYPREAKVQWKVDNALQSGNSQESVTEQDSKDSTYSLESTLTLSKADYEKHKVYACEVTHQGLSSPVTKSFNRGEC
heavy 1: not shown
light 2: B1 light 2 with G75A
heavy 2: B1 heavy 2
B4: iPS:327718 (bispecific antibody, human IgG1, kappa, lambda, N297G)
light 1: not shown
heavy 1: not shown
light 2: B1 light 2 with G75A
heavy 2: B1 heavy 2 with K370E
B5: iPS:327730 (bispecific antibody, human IgG1, kappa, lambda, N297G)
light 1: B1 light 1
heavy 1: not shown
light 2: B1 light 2 with G75A
heavy 2: B1 heavy 2
B6: iPS:327719 (bispecific antibody, human IgG1, kappa, lambda, N297G)
light 1: B3 light 1
heavy 1: not shown
light 2: B1 light 2 with G75A
heavy 2: B1 heavy 2 with K370E
B7: iPS:327870 (bispecific antibody, human IgG2, kappa, lambda)
light 1: not shown
heavy 1: QVQLQQSGPGLVKPSQTLSLTCAISGDSVSSNSATWNWIRQSPSRGLEWLGRTYYRSKWSNHYAVSVKSRITINPDTSKSQFSLQLNSVTPEDTAVYYCARGTWKQLWFLDHWGQGTLVTVSSASTKGPSVFPLAPCSRSTSESTAALGCLVKDYFPEPVTVSWNSGALTSGVHTFPAVLQSSGLYSLKSVVTVPSSNFGTQTYTCNVDHKPSNTKVDKTVERKCCVECPPCPAPPVAGPSVFLFPPKPKDTLMISRTPEVTCVVVDVSHEDPEVQFNWYVDGVEVHNAKTKPREEQFNSTFRVVSVLTVVHQDWLNGKEYKCKVSNKGLPAPIEKTISKTKGQPREPQVYTLPPSREEMTKNQVSLTCLVDGFYPSDIAVEWESNGQPENNYDTTPPMLDSDGSFFLYSDLTVDKSRWQQGNVFSCSVMHEALHNHYTQKSLSLSPGK
light 2: B1 light 2 with A72T
heavy 2: QVQLVESGGGVVQPGRSLRLSCAASGFTFSSFGMHWVRQAPGKGLEWVAVISFDGSIKYSVDSVKGRFTISRDNSKNTLFLQMNSLRAEDTAVYYCARDRLNYYDSSGYYHYKYYGMAVWGQGTTVTVSSASTKGPSVFPLAPCSRSTSESTAALGCLVKDYFPEPVTVSWNSGALTSGVHTFPAVLQSSGLYSLESVVTVPSSNFGTQTYTCNVDHKPSNTKVDKTVERKCCVECPPCPAPPVAGPSVFLFPPKPKDTLMISRTPEVTCVVVDVSHEDPEVQFNWYVDGVEVHNAKTKPREEQFNSTFRVVSVLTVVHQDWLNGKEYKCKVSNKGLPAPIEKTISKTKGQPREPQVYTLPPSRKKMTKNQVSLTCLVKGFYPSDIAVEWESNGQPENNYKTTPPMLKSDGSFFLYSKLTVDKSRWQQGNVFSCSVMHEALHNHYTQKSLSLSPGK
B8: iPS:327731 (bispecific antibody, human IgG1, kappa, lambda, N297G)
light 1: not shown
heavy 1: not shown
light 2: B1 light 2
heavy 2: B1 heavy 2 with D105E, K370E
B9: iPS:327721 (bispecific antibody, human IgG1, kappa, lambda, N297G)
light 1: B1 light 1
heavy 1: not shown
light 2: B1 light 2 with G75A
heavy 2: B1 heavy 2 with K370E
B10: iPS:327732 (bispecific antibody, human IgG1, kappa, lambda, N297G)
light 1: not shown
heavy 1: not shown
light 2: B1 light 2
heavy 2: B1 heavy 2 with D105E, K370E
B11: iPS:327722 (bispecific antibody, human IgG1, kappa, lambda, N297G)
light 1: DIQMTQSPSSLSASVGDRITITCRASQSISRYLNWYQQKPGKAPKLLIYAASSLQSGIPSRFSGSGSGTDFTLTINSLQPEDFATYFCQQSYSPPFTFGEGTKVDIKRTVAAPSVFIFPPSDEQLKSGTASVVCLLNNFYPREAKVQWKVDNALQSGNSQESVTEQDSKDSTYSLESTLTLSKADYEKHKVYACEVTHQGLSSPVTKSFNRGEC
heavy 1: not shown
light 2: B1 light 2 with G75A, G103K
heavy 2: B1 heavy 2 with G44E, K370E
B12: iPS:327733 (bispecific antibody, human IgG1, kappa, lambda, N297G)
light 1: B3 light 1
heavy 1: not shown
light 2: B1 light 2
heavy 2: B1 heavy 2 with D105E, K370E
B13: iPS:327724 (bispecific antibody, human IgG1, kappa, lambda, N297G)
light 1: not shown
heavy 1: not shown
light 2: B1 light 2 with G75A, G103K
heavy 2: B1 heavy 2 with G44E, K370E
B14: iPS:327734 (bispecific antibody, human IgG1, kappa, lambda, N297G)
light 1: B1 light 1
heavy 1: not shown
light 2: B1 light 2
heavy 2: B1 heavy 2 with D105E, K370E
B15: iPS:327725 (bispecific antibody, human IgG1, kappa, lambda, N297G)
light 1: B3 light 1 with P100E
heavy 1: not shown
light 2: B1 light 2 with G75A, G103K
heavy 2: B1 heavy 2 with G44E, K370E

biological target: human CGRP receptor (human, UniProt Q16602 23-461; O60894 27-148); assay: cell-based or functional assay
Sequence (Q16602 23-461 limits assumed, chain 1 of 2): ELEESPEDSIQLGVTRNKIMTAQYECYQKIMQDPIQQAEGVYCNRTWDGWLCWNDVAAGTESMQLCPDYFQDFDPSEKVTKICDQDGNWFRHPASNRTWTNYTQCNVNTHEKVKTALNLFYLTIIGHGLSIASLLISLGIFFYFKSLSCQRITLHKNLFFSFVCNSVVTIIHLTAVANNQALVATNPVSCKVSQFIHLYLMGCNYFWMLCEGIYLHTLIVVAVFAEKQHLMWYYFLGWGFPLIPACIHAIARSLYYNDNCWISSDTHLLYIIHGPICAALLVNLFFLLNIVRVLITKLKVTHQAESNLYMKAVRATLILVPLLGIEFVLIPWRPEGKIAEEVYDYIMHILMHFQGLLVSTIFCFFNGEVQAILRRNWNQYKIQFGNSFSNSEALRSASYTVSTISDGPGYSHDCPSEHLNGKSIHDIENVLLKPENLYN
Sequence (O60894 27-148 limits assumed, chain 2 of 2): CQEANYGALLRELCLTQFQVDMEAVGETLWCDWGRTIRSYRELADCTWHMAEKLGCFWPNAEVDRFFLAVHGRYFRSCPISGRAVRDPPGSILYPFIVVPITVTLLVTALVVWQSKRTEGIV

Binder | % inhibition of human CGRPR [%]
B1 | 94
B2 | 92
B3 | 84
B4 | 78
B5 | 87
B6 | 85
B7 | 67
B8 | 74
B9 | 81
B10 | 69
B11 | 82
B12 | 84
B13 | 80
B14 | 82
B15 | 86

biological target: T1, human PAC1 receptor (human, UniProt P41586 21-468); assay: cell-based or functional assay
T1 sequence: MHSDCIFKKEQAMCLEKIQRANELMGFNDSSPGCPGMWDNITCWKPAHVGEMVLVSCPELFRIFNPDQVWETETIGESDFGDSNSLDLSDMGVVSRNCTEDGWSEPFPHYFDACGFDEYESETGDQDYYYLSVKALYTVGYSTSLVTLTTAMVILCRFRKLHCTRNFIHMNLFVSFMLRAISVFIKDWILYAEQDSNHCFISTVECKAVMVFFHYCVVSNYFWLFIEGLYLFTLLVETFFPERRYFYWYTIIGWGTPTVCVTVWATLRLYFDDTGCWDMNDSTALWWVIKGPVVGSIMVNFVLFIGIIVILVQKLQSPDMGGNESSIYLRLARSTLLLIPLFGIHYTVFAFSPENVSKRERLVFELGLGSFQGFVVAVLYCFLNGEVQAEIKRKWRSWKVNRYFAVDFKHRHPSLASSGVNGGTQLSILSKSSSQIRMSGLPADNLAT

Binder | % inhibition of human PAC1 [%]
B1 | 104
B2 | 94
B3 | 85
B4 | 70
B5 | 101
B6 | 59
B7 | 86
B8 | 74
B9 | 99
B10 | 56
B11 | 38
B12 | 66
B13 | 33
B14 | 99
B15 | 39
